Values quoted from earlier work in article PMC8006918.
Where two headings read alike, the source gives them in different places.

Legend:
[1] = molecular target: Tenascin-C (Homo sapiens) (UniProt P24821)
[2] = molecular target: Tenascin-C (Homo sapiens) (UniProt P24821); remark: listed apart in the source
[3] = molecular target: Tenascin-C (Homo sapiens) (UniProt P24821); remark: listed apart in the source

Sequence of Tenascin-C (Homo sapiens) (P24821 23-2201): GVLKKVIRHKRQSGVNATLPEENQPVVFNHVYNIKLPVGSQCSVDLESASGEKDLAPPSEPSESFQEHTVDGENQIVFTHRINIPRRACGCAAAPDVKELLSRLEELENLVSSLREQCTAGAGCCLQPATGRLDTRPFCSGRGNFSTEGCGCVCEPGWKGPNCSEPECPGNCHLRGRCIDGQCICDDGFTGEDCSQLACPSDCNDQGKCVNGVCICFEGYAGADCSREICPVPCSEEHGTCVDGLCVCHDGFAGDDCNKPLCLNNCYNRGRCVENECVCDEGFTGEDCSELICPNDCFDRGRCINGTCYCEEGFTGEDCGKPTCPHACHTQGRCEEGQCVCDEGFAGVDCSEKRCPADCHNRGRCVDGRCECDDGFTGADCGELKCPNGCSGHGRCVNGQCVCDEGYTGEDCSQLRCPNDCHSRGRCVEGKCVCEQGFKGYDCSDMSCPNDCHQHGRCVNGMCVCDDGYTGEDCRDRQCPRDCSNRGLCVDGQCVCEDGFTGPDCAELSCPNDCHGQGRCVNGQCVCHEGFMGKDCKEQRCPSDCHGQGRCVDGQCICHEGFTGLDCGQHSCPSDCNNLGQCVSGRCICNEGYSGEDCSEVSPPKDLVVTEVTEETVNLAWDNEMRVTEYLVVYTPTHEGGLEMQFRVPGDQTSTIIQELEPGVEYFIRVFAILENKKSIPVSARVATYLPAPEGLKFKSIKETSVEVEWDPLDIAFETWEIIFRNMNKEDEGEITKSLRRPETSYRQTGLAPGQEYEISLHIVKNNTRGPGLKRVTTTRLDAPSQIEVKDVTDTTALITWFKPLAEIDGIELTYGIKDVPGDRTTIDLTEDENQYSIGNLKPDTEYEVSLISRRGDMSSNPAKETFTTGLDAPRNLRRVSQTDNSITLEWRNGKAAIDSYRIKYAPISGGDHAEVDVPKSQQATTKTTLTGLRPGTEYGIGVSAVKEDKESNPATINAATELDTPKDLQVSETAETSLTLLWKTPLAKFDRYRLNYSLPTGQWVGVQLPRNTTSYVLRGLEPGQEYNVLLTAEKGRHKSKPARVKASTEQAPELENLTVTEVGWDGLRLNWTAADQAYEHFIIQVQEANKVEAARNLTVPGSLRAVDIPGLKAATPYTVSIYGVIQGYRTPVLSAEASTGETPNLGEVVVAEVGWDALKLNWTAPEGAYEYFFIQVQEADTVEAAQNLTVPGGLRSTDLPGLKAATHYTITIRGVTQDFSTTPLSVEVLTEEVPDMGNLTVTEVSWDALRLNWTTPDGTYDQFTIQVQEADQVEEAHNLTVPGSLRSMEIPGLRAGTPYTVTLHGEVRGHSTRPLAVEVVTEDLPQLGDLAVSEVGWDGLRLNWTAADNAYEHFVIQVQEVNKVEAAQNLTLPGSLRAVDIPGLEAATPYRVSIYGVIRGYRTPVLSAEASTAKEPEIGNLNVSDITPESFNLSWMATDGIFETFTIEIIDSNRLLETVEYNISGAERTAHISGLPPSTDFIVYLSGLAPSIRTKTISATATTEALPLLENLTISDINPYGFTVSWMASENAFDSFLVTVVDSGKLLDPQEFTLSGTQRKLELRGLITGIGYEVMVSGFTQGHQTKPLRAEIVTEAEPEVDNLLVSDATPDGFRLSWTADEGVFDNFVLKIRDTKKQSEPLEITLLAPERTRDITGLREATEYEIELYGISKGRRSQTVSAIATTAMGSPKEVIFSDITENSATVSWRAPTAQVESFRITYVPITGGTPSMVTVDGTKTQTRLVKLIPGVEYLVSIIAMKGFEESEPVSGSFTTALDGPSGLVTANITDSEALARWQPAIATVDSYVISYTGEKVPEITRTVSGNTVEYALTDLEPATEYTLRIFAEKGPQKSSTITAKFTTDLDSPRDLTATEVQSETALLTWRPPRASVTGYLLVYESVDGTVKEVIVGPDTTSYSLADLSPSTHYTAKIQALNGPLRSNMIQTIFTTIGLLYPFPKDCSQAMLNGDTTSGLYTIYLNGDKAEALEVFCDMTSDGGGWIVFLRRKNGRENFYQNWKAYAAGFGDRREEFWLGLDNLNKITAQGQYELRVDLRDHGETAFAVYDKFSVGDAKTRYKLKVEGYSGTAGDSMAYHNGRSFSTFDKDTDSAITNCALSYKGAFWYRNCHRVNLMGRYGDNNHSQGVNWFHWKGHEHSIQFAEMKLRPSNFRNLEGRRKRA
Sequence of Fibronectin FN III13 (P02751 1904-1992): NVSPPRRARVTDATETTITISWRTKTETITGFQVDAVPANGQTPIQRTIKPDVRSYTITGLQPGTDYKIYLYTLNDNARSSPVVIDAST
Sequence of CCL21 (O00585 24-134): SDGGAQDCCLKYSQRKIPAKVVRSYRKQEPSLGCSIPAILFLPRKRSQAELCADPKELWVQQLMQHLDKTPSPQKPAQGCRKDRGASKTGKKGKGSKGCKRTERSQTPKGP
Sequence of TGF-β1 (P01137 279-390): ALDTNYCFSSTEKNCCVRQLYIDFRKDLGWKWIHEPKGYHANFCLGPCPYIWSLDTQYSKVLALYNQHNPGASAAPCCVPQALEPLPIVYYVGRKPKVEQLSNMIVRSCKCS

CCL21 (from UniProt O00585)
Kd [1]: 58 nM

Fibronectin FN III13 (from UniProt P02751)
Kd [2]: 128 nM

TGF-β1 (from UniProt P01137)
Kd [3]: 20.3 nM
